According to PMC5179001:

Tested on: RovA (Yersinia pseudotuberculosis (YPIII?))
Assay: EMSA
Details: […]) at 25 C or 37 C, buffer

rovA promoter fragment BS I (activating site)
K half: 6.01 nM

rovA promoter fragment BS II (repressing site)
K half: 40.7 nM
